Molecular target: p53, recombinant (UniProt P04637 1-393)
Experiment: BLI

p53, recombinant, sequence (P04637 whole entry): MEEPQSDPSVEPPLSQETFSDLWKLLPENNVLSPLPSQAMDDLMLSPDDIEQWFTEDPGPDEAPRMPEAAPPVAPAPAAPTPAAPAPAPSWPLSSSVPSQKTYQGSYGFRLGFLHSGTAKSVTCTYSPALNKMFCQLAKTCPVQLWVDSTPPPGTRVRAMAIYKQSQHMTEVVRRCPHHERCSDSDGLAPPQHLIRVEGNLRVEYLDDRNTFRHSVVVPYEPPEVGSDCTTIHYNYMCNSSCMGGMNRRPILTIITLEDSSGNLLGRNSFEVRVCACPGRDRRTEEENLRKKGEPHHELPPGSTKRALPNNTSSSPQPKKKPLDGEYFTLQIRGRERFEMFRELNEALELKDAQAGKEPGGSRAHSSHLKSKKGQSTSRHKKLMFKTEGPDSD

Kd: 0.0145 µM
B1: recombinant HMGB1 B box (domain or fragment)
chain: KFKDPNAPKRPPSAFFLFCSEYRPKIKGEHPGLSIGDVAKKLGEMWNNTAADDKQPYEKKAAKLKEKYEKDIAAY
modifications: Limits not given; 88-162 is the usual B box construct of the source laboratory (Tracey).
